Assay results from article PMC5283830, “Suppression of C9orf72 RNA repeat-induced neurotoxicity by the ALS-associated RNA-binding protein Zfp106”.

Legend:
Zfp106 [1] = target: T1, Zfp106 (Mus musculus, UniProt O88466 1-1888); assay: EMSA; 1 mM Mg2+; competed by 30x unlabeled self; EMSA: 40 mM Tris-Cl pH 8.0, 30 mM KCl, 1 mM MgCl2, 0.01% NP-40, 1 mM DTT, 5% glycerol, 10 ug/ml BSA, 30 min room temperature; pull-down: nuclear extract in 50 mM Tris pH 7.4, 150 mM NaCl, 1 mM EDTA, 0.5% NP-40, 4 h at 4 C; details: protein: recombinant; tags: N-terminal 3xFLAG-2xSTREP; label: 5' 32P (probe)
T1 sequence (O88466 whole entry): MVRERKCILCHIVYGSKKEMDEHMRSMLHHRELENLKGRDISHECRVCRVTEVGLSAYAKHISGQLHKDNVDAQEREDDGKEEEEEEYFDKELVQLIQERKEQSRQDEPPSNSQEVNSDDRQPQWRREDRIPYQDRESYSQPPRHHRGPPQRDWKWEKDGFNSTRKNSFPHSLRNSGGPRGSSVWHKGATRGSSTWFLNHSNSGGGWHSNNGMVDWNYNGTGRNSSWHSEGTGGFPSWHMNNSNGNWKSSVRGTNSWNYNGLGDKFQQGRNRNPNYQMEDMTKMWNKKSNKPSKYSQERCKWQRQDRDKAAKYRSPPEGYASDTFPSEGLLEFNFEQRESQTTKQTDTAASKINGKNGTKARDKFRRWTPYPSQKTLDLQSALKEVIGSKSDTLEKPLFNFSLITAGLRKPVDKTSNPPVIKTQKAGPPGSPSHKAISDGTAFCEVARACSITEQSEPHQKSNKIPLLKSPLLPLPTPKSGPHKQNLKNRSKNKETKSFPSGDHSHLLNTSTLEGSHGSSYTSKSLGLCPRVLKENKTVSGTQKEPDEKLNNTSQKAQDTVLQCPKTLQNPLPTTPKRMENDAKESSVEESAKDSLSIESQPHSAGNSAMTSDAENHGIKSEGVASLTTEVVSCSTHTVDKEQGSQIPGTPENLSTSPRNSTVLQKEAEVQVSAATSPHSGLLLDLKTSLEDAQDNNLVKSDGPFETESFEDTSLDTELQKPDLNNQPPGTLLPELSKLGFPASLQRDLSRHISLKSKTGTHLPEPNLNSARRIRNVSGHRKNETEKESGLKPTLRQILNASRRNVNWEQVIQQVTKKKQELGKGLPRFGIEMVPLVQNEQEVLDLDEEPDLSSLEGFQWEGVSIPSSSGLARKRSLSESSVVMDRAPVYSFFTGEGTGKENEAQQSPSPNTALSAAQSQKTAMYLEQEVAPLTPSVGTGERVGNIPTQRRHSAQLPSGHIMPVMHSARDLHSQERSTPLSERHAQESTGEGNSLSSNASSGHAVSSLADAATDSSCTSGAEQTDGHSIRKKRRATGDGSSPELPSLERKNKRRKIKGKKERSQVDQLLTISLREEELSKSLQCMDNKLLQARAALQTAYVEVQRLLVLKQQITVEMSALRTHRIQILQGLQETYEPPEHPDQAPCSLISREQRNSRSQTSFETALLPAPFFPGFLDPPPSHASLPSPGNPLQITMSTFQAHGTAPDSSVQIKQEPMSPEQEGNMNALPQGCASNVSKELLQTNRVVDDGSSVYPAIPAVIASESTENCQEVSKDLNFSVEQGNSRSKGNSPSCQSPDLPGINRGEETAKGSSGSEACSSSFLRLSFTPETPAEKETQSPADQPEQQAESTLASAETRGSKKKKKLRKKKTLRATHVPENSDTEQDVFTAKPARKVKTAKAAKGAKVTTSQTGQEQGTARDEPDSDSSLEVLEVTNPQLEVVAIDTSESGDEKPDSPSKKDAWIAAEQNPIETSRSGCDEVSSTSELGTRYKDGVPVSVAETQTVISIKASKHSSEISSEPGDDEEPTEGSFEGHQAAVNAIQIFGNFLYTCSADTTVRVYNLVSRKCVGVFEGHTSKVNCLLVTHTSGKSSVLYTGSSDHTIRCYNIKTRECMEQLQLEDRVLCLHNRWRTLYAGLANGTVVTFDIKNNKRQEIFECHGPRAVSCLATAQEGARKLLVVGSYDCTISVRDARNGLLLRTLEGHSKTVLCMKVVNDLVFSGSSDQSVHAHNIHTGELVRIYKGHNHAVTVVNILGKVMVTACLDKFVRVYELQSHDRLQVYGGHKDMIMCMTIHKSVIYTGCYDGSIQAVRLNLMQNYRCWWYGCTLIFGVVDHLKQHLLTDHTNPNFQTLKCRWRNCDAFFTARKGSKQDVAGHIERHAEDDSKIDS

MBNL1 [2] = target: T2, MBNL1 (Mus musculus, UniProt G3X9Q0 1-381); assay: EMSA; 1 mM Mg2+; EMSA: 40 mM Tris-Cl pH 8.0, 30 mM KCl, 1 mM MgCl2, 0.01% NP-40, 1 mM DTT, 5% glycerol, 10 ug/ml BSA, 30 min room temperature; pull-down: nuclear extract in 50 mM Tris pH 7.4, 150 mM NaCl, 1 mM EDTA, 0.5% NP-40, 4 h at 4 C; details: protein: recombinant; tags: N-terminal 3xFLAG-2xSTREP; label: 5' 32P (probe)
T2 sequence: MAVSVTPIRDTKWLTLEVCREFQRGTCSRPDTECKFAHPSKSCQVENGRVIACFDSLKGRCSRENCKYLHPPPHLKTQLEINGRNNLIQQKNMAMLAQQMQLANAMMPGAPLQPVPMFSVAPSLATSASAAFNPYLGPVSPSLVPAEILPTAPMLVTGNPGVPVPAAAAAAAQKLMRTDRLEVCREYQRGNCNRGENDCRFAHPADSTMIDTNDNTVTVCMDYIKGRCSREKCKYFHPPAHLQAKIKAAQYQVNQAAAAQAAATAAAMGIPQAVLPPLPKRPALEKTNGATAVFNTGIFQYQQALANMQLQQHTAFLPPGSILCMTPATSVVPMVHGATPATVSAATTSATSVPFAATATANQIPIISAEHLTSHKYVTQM

Zfp106 [3] = target: T1, Zfp106; assay: competition; 30x molar excess vs r(GGGGCC)4 probe; EMSA: 40 mM Tris-Cl pH 8.0, 30 mM KCl, 1 mM MgCl2, 0.01% NP-40, 1 mM DTT, 5% glycerol, 10 ug/ml BSA, 30 min room temperature; pull-down: nuclear extract in 50 mM Tris pH 7.4, 150 mM NaCl, 1 mM EDTA, 0.5% NP-40, 4 h at 4 C; details: protein: recombinant, tags: N-terminal 3xFLAG-2xSTREP
MBNL1 [4] = target: T2, MBNL1; assay: EMSA; 1 mM Mg2+; competed by 30x unlabeled self; EMSA: 40 mM Tris-Cl pH 8.0, 30 mM KCl, 1 mM MgCl2, 0.01% NP-40, 1 mM DTT, 5% glycerol, 10 ug/ml BSA, 30 min room temperature; pull-down: nuclear extract in 50 mM Tris pH 7.4, 150 mM NaCl, 1 mM EDTA, 0.5% NP-40, 4 h at 4 C; details: protein: recombinant; tags: N-terminal 3xFLAG-2xSTREP; label: 5' 32P (probe)

GGGGCCGGGGCCGGGGCCGGGGCC (ssRNA) [r(GGGGCC)4]: binds (Zfp106 [1]); no binding (MBNL1 [2]).

GAGGCCGGGACCGAGACCGAGGCC (ssRNA) [mutated r(GGGGCC)4 (mut)]: no binding (Zfp106 [3]).

AAAACCAAAACCAAAACCAAAACC (ssRNA) [r(AAAACC)4]: no binding (Zfp106 [3]).

CUGCUGCUGCUGCUGCUGCUGCUG (ssRNA) [r(CUG)8]: binds (MBNL1 [4]); no binding (Zfp106 [3]; label: 5' 32P (probe)).
